Drawing on publication PMC6628393, this text covers inhibition of Kv2.1-mediated current in Xenopus oocytes by 1 μM MiDCA1 (reversible on washout) for one substance.

The test concerns the target Kv2.1 potassium channel (UniProt Q14721).
UniProt Q14721, sequence (Q14721 whole entry): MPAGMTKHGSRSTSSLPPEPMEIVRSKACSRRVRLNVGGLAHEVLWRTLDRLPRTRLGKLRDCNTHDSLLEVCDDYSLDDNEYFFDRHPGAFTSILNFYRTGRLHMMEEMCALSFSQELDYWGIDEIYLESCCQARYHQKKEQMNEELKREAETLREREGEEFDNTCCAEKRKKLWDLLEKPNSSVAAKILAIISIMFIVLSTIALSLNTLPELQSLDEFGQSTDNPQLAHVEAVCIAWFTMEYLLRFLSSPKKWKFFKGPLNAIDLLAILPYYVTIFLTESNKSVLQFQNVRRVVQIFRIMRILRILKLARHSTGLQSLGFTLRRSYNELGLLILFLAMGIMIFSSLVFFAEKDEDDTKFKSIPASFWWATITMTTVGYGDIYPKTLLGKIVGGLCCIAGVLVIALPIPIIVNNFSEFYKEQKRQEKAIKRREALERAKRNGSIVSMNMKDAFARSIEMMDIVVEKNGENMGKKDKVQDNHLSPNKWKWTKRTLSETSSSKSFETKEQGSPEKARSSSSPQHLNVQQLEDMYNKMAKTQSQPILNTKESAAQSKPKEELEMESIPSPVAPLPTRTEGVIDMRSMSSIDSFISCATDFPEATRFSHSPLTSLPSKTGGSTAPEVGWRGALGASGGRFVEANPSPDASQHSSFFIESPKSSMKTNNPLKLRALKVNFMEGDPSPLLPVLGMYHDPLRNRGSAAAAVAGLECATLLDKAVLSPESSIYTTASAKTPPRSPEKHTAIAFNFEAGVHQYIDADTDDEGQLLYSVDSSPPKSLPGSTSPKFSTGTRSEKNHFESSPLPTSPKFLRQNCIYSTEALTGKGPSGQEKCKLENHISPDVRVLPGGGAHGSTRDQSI

Substance “MiDCA1, a phospholipase A2 (PLA2) neurotoxin from Micrurus dumerilii carinicauda coral snake venom (enzyme)” yielded an inhibition of Kv2.1-mediated current in Xenopus oocytes by 1 μM MiDCA1 (reversible on washout) of 55%.
